B3: third Grb4 SH3 domain, Grb4 residues 199-257 (other, human, UniProt O43639 199-257, looked up)
chain: VVQTLYPFSSVTEEELNFEKGETMEVIEKPENDPEWWKCKNARGQVGLVPKNYVVVLSD
modifications: also: His-tag, sequence and removal not given here, 15N-labelled
notes: range 199-257; Expressed in E. coli as a His-tagged protein; It was 15N-labelled for NMR; also called SH3_3
B4: Nogo-A (32-200) (other)
chain: EDEEEEEEEEEEDEDEDLEELEVLERKPAAGLSAAPVPTAPAAGAPLMDFGNDFVPPAPRGPLPAAPPVAPERQPSWDPSPVSSTVPAPSPLSAAAVSPSKLPEDDEPPARPPPPPPASVSPQAEPVWTPPAPAPAAPPSTPAAPKRRGSSGSVDETLFALPAASEPVI
notes: Recombinant, cloned into pET32a and expressed in E. coli

Test [1] concerns the target T1, Grb4 SH3_3 (third SH3 domain, Grb4 residues 199-257) (Homo sapiens, UniProt O43639).
T1 construct: corresponding to the human Grb4 residues 5-61; 115-171 and 199-257 respectively; His-tag; made in house; host or cells: E. coli BL21
T1 sequence (O43639 198-256): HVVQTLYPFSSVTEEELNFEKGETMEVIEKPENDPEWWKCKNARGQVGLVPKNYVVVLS
The experiment in a line: Isothermal titration calorimetry of Nogo fragments with Grb4 SH3_3. The format is binding. On the procedure: (§1) All calorimetric titrations were performed on a Microcal VP ITC machine (Microcal, USA). The protein/peptide samples were dissolved in the 50 mM Tris buffer (pH 7.0), with 3 mM 2-mercaptoethanol. After centrifugation for 15 min, the samples were degassed for 15 min to avoid the bubble formation. The Grb4 SH3 samples with a concentration of 0.025 or 0.05 mM were placed in the 1.4 ml reaction cell and 1.0 mM Nogo samples were loaded into the […] injection syringe. All titrations were performed at 25° C. and the obtained data was fitted using the ORIGIN software (Originlab Corporation). NMR experiments were performed on a 500 MHz Bruker DRX spectrometer equipped with an actively shielded cryoprobe and an 800 MHz Bruker Avance spectrometer (Sattler, M., et al., (1999) Prog. NMR Spectrosc. 34, 93-158.). NMR data was processed with NMRPipe (Delaglio, F et al., (1995) J. Biomol. NMR 6, 277-293) and analysed with NMRView (Johnson, B. A. & Blevins, R. A. (1994). J. Biomol. NMR 4, 603-614.).
Both Nogo-A (1-200) and Grb4 (115-257) were further dissected into different Nogo fragments and two different […] domains based on sequence alignment as detailed in Table 1 and the interactions among them were studied first by NMR HSQC titration followed by isothermal titration calorimetry (ITC) to obtain thermodynamic parameters of the binding interaction. As presented in Table 2, two complete sets of thermodynamic parameters were derived from ITC measurements, one set for the interaction between Nogo-A (32-200) and the third Grb4 SH3 domain and another set for the interaction between the 11-residue Nogo-A (171-181) and the third Grb4 SH3 domain. […] Many factors account for this observation. One possibility is that in the Nogo-A (32-200) protein, this 11-residue binding region is less accessible. Alternatively, the presence of other regions without any significant contribution to the binding will unavoidably reduce the binding affinity.
(In general: Isothermal titration calorimetry measures the heat released or taken up as one component is titrated into another.)

Test [2] deals with T2, Grb4 SH3_2 (second SH3 domain, Grb4 residues 115-170) (Homo sapiens, UniProt O43639).
T2 construct: corresponding to the human Grb4 residues 5-61; 115-171 and 199-257 respectively; His-tag; made in house; host or cells: E. coli BL21
T2 sequence (O43639 115-171): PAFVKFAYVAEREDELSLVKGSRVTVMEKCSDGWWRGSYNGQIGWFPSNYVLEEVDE
Briefly: 1H-15N NMR HSQC titration of Nogo fragments with Grb4 SH3_2. The class given is binding. The settings on record: for Binding detected by NMR: Grb4 fragment SH3_2. On the procedure:
as §1
The ^1H-^15N HSQC titration experiments were conducted according to our previous procedure (Song J. (2003) J Biol Chem. 278, 24714-20). For structure determination, backbone sequential assignments were achieved by analysing HNCACB, CBCA(CO)NH, HNCO experiments while side chain assignments were obtained from (H)CC(CO)NH, H(CCO)NH, HCCH-TOCSY, ^15N-edited TOCSY-HSQC and NOESY-HSQC. Structure determination of the third Grb4 SH3 domain was conducted by a standard CNS (Crystallography and NMR System) protocol as described in our previous publication (Li M, et al., 2004, Eur J. Biochem. 271, 3512-22) with NOE constraints derived from ^15N- and ^13C-NOESY spectra and dihedral angle constraints from TALOS prediction using 5 different chemical shifts. The accepted NMR structure with the lowest energy was selected for analysis and manipulation to generate FIG. 1 by use of MolMol graphic software (Koradi, R., et al., (1996) J. Mol. Graphics. 14, 51-55.). […]

For test [3], the target named is T3, Grb4 SH3_3 (third SH3 domain, Grb4 residues 199-257) (Homo sapiens, UniProt O43639).
T3 construct: corresponding to the human Grb4 residues 5-61; 115-171 and 199-257 respectively; His-tag; made in house; host or cells: E. coli BL21
T3 sequence (O43639 199-257): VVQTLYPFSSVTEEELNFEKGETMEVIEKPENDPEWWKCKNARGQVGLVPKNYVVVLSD
The experiment in a line: 1H-15N NMR HSQC titration of Nogo fragments with Grb4 SH3_3. The class given is binding. The settings on record: two-fold excess of the peptide (FIG. 1b). On the procedure:
as §1
(§2) The ^1H-^15N HSQC titration experiments were conducted according to our previous procedure (Song J. (2003) J Biol Chem. 278, 24714-20). […]
To further validate the identified binding interaction, we determined the solution structure of the third Grb4 SH3 domain by use of heteronuclear tripleresonance NMR methodology as described briefly in Examples 1 and 2. […]

Test [4] addresses B3. Briefly: ITC, comparison of the two sets of Table 2. As for the experimental part: as §1
In test [5] the target is B3. Briefly: ITC at 25 C, peptide in syringe, SH3_3 (50 µM) in cell, Tris pH 7.0. On the set-up: ΔS: unit not given here. As for the experimental part:
as §1

Test [6] concerns the target T4, Grb4 SH3_23 (second and third SH3 domains, Grb4 residues 115-257) (Homo sapiens, UniProt O43639).
T4 construct: Grb4 (115-257) containing the second and third SH3 domains were expressed; His-tag; made in house; host or cells: E. coli BL21
T4 sequence (O43639 115-257): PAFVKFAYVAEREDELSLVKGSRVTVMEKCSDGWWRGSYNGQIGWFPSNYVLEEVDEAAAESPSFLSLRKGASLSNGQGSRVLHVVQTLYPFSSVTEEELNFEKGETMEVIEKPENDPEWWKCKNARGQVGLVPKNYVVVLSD
The experiment in a line: 1H-15N NMR HSQC titration of Nogo fragments with Grb4 SH3_23. The format is binding. The following applies: four-fold excess of unlabelled Nogo protein; pH 6.8, 20° C. (FIG. 2). On the procedure:
as §1, §2
The present inventors also determined whether a cross-talk existed between Nogo and Eph receptor-ephrinB mediated signalling networks, and whether Grb4 was the convergence point. […]

The test “Nogo-A (32-200)” addresses B4. The experiment in a line: ITC at 25 C, Nogo in syringe, SH3_3 (25 µM) in cell, Tris pH 7.0. On the set-up: ΔS: unit not given here. As for the experimental part:
as §1

Test [7] addresses T4, Grb4 SH3_23 (second and third SH3 domains, Grb4 residues 115-257). The experiment in a line: Isothermal titration calorimetry of Nogo fragments with Grb4 SH3_23. The format is binding. The settings on record: Grb4 fragment SH3_23. As for the experimental part: as §1
(§3) Both Nogo-A (1-200) and Grb4 (115-257) were further dissected into different Nogo fragments and two different […] domains based on sequence alignment as detailed in Table 1 and the interactions among them were studied first by NMR HSQC titration followed by isothermal titration calorimetry (ITC) to obtain thermodynamic parameters of the binding interaction. […]

For test [8], the target named is T2, Grb4 SH3_2 (second SH3 domain, Grb4 residues 115-170). Briefly: Isothermal titration calorimetry of Nogo fragments with Grb4 SH3_2. The format is binding. The settings on record: Grb4 fragment SH3_2. As for the experimental part: as §1, §3
The target of test [9] is B3. Briefly: ITC at 25 C, Nogo in syringe, SH3_3 (25 µM) in cell, Tris pH 7.0. On the set-up: ΔS: unit not given here. On the procedure:
as §1

Setting [10] is: ITC at 25° C., Tris pH 7.0, Nogo in syringe, SH3_3 in cell (25 or 50 μM).

Here are results for six molecules from US20090137484A1, “Neuronal Network-Interacting Peptide” (NATIONAL UNIVERSITY OF SINGAPORE, priority 2004, published 2009).

Where a SMILES comes first, the peptide text is derived from it. Where no end group is shown, it is not given here.

Broadly, the Kd is the free concentration of one partner at which half of the binding sites on the other are occupied at equilibrium, for simple one-to-one binding.

“Ac-ARPPPPPPAS-NH2 [Nogo-A (141-150), chemically synthesised peptide, fragment 141-150 of Nogo A]”: the “Binding detected by ITC” value in [1] (Grb4 fragment SH3_3) is “Very weak”.
Turning to `CC(=O)N[C@@H](CO)C(=O)N[C@H](C(=O)N1CCC[C@H]1C(=O)N[C@@H](C)C(=O)N[C@@H](C)C(=O)N1CCC[C@H]1C(=O)N[C@@H](CCCCN)C(=O)N[C@@H](CCCNC(=N)N)C(=O)N[C@@H](CCCNC(=N)N)C(=O)NCC(=O)N[C@@H](CO)C(N)=O)[C@@H](C)O` [Nogo-A (171-181), Ac-STPAAPKRRGS-NH2] (Ac-STPAAPKRRGS-NH2), the “Binding with the second Grb4 SH3 domain (specificity statement)” value in [2] is “no significant binding”. Besides, in [3], the “HSQC peaks of the 15N-labeled third SH3 domain undergoing a significant shift” value is listed as roughly 50%. In addition, in test [1] (setting [10]), the Ka came to 357000 ± 21000 M⁻¹; the affinity, expressed as Kd, was 2.8 µM; the Stoichiometry n worked out at 0.95 ± 0.068; the ΔH is −3,310 ± 499 cal/mol. For the same molecule, the ΔS in test [1] (setting [10]) was 14.3 cal/(mol·K). For the same molecule, the “Binding affinity to the third Grb4 SH3 domain relative to Nogo-A (32-200)” value in test [1] (higher than Nogo-A (32-200)) is “about 30 fold”.

B1: Nogo-A (171-181) Ac-STPAAPKRRGS-NH2 (peptide)
peptide: Ac-STPAAPKRRGS-NH2
notes: Chemically synthesised by the Fmoc method; also called 11-residue Nogo-A (171-181) peptide
For the molecule B1, the “fold higher binding affinity than Nogo-A (32-200)” value in test [4] is roughly 30 fold. In test [5], this molecule returned a Ka of 357000 M⁻¹, a Stoichiometry n of 0.95, a ΔH of -3.31 kcal/mol and a ΔS of 14.3.

B2: Nogo-A (1-200): recombinant N-terminal fragment of human Nogo-A, residues 1-200, expressed in E. coli (protein)
chain: MEDLDQSPLVSSSDSPPRPQPAFKYQFVREPEDEEEEEEEEEEDEDEDLEELEVLERKPAAGLSAAPVPTAPAAGAPLMDFGNDFVPPAPRGPLPAAPPVAPERQPSWDPSPVSSTVPAPSPLSAAAVSPSKLPEDDEPPARPPPPPPASVSPQAEPVWTPPAPAPAAPPSTPAAPKRRGSSGSVDETLFALPAASEPVI
Consider B2, for which the “Shifts of HSQC peaks of 15N-labeled Grb4 (115-257)” value in test [6] is reported as “significant shifts of the HSQC peaks”. In test [2], the “Binding detected by NMR” value is “Very weak”.
Take B3: in the test with Nogo-A (32-200), the Ka is 11500 M⁻¹ and binding was characterised by a dissociation constant (Kd) of 87 µM.
As to B4, in test [2], the “Binding detected by NMR” value is “Very weak”. Moreover, the “Binding detected by ITC” value in test [7] is listed as “Very weak”. Besides, the “Binding detected by ITC” value in test [8] is given as “Very weak”. In test [1] (setting [10]), the Ka was found to be 11500 ± 2200 M⁻¹ and the affinity, expressed as Kd, was 87 µM. In test [9], this molecule came in with a Stoichiometry n of 1.13, a ΔH of 69.6 kcal/mol and a ΔS of 252.
